Values belong to the binder of their own block, whether it stands above or below them.
Columns and labels:
[1] = target: T1, CD70-hFc complex (extracellular domain of human CD70 fused with the Fc region of human IgG1) (human) (UniProt P32970); test: flow cytometry, CD70-hFc at 2 ug/mL on NK71-transduced Jurkat cells (about 16% NK71 positive; the cells also carry endogenous CD27)
T1 sequence (looked up): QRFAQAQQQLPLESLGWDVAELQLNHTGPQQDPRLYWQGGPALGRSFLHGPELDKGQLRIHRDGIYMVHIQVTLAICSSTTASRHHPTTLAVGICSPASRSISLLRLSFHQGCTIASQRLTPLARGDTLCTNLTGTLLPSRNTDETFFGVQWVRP

[2] = target: T1, CD70-hFc complex (extracellular domain of human CD70 fused with the Fc region of human IgG1) (human); test: flow cytometry, CD70-hFc at 10 ug/mL on NK71-transduced Jurkat cells (about 16% NK71 positive; the cells also carry endogenous CD27)
[3] = target: T2, CD27 (endogenous, on Jurkat cells) (UniProt P26842 20-260, limits assumed); test: flow cytometry, CD70-hFc at 2 or 10 ug/ml on native Jurkat cells, anti-human Fc-APC detection
T2 construct: whole, on cells; also called the ligand for CD70
Description: FIGS. 27A-27F show data related to the ability of anti-CD70 CAR-expressing Jurkat cells to bind human bind CD70. […] Moving left to right are negative control, control for the antibody to human Fc, binding when 2 ug/ml of a CD70-hFc complex is incubated with the Jurkat cells and binding is detected with the human Fc-APC antibody, and binding when 10 ug/ml of a CD70-hFc complex is incubated with the Jurkat cells and binding is detected with the human Fc-APC antibody. […] Moving left to right is a control for the antibody to murine Fc, binding when 2 ug/ml of a CD70-murine Fc complex is incubated with the Jurkat cells and binding is detected with a murine Fc-APC antibody, and binding when 10 ug/ml of a CD70-murine Fc complex is incubated with the Jurkat cells and binding is detected with the murine Fc-APC antibody, and detection of Flag tag (present in the NK71/72 CAR constructs, but not native Jurkat cells). […] Moving left to right are negative control, control for the antibody to human Fc, binding when 2 ug/ml of a CD70-hFc complex is incubated with the Jurkat cells and binding is detected with the human Fc-APC antibody, and binding when 10 ug/ml of a CD70-hFc complex is incubated with the Jurkat cells and binding is detected with the human Fc-APC antibody. […]

T2 sequence (P26842 20-260 limits assumed): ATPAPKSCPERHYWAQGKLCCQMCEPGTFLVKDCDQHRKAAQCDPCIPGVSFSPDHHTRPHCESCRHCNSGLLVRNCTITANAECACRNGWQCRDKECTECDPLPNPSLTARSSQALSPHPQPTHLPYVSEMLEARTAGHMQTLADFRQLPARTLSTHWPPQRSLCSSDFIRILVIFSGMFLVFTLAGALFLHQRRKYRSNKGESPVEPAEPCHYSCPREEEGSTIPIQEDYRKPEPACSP

- percent of Jurkat cells binding CD70 [1]: 50%
- percent of Jurkat cells binding CD70 [2]: > 80%
B1: NK71 anti-CD70 CAR (scFv, not shown: a dimerising Fc or GST; small tags and cut ends)
scFv: QVTLKESGPVLVKPTETLTLTCTVSGFSLSNARMGVTWIRQPPGKALEWLAHIFSNDEKSYSTSLKSRLTISKDTSKTQVVLTMTNMDPVDTATYYCARIRDYYDISSYYDYWGQGTLVSVSSGGGGSGGGGSGGGGSDIQMTQSPSAMSASVGDRVTITCRASQDISNYLAWFQQKPGKVPKRLIYAASSLQSGVPSRFSGSGSGTEFTLTISSLLPEDFATYYCLQLNSFPFTFGGGTKVEIN

- binding result [3]: binds
B2: CD70-hFc complex (extracellular domain of human CD70 fused with the Fc region of human IgG1) (Fc fusion, UniProt P32970 39-193, looked up)
chain: T1 sequence (looked up)
notes: range 39-193; Soluble reagent added at 2 or 10 ug/ml and detected with an anti-human Fc-APC antibody; not shown: Fc region of human IgG1, at the N-terminus of the fusion

— patent US20240360234A1 (NKARTA, published 2024)
